# Experimental data from US20220409550A1 (KOREA INSTITUTE OF SCIENCE AND TECHNOLOGY, published 2022).
# Molecular target: murine PD-L1 on CHO-K1 cells (murine, UniProt Q9EP73 19-290)
# Assay: cell-based or functional assay
# Chain of murine PD-L1 on CHO-K1 cells (Q9EP73 19-290): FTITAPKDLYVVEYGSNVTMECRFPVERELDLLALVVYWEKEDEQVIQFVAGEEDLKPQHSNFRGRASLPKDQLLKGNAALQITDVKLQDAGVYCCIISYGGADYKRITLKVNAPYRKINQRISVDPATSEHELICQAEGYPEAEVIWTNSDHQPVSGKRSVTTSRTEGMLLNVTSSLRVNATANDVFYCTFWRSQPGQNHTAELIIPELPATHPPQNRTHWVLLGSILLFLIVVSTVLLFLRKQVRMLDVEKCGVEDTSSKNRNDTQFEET
binder,measurement,value
monomeric form of soluble PD-1 (sPD-1) of the ecto-domain of murine PD-1 (receptor) MHHHHHHLEVPNGPWRSLTFYPAWLTVSEGANATFTCSLSNWSEDLMLNWNRLSPSNQTEKQAAFCNGLSQPVQDARFQIIQLPNRHDFHMNILDTRRNDSGIYLCGAISLHPKAKIEESPGAELVVT,"half maximal effective concentration (EC50), NFAT-mediated luciferase expression, bioluminescent PD-1/PD-L1 blockade bioassay",457 nM
